Reference: CN106146656A (UNIV BEIJING, dated 2016)
No end group written: not given here.

Biological target: T1, 6×His标签 (组氨酸标签) (also: coupled to ovalbumin carrier, site not given here)
T1 construct: also called 多组氨酸标签; hexa组氨酸标签
T1 peptide: HHHHHH
Test: indirect phage-ELISA of phage-displayed clones after three rounds of solid-phase panning on 6×His-OVA

B1: 针对His标签的单域重链抗体 (特异性识别组氨酸标签的纳米抗体) (VHH)
VHH: QVQLVESGGGLVQPGQSLRLSCSAPGFTFNNFGLAWFRQAPGKEREEVACIRSHGVRTHYGASVEGRFTISRDSDNKALWLQMNDLKPEDSAVYYCAADPVPANFDTCVHNGYDYWGLGTQVTVSS
notes: also called 抗His标签单域重链抗体
- binding result: binds
